# Data published in the DeepSol protein solubility set.
# Experiment: soluble on expression in E. coli; label from the status in PepcDB or PDB records
row,Sequence,soluble on expression in E. coli
1,MGSDKIHHHHHHMDTLTRIRAFIDVVEAEGFSAAARKTGRSKALLSKYVRELEDELGALLLNRTTRQFSMTEAGHTYYRSAADILKEIDNLADLVRENNVGISGKIRITVPRSFTDAEVGQSLIDFALQHPDLSIEIVAEDRFVDLIEEGFDLAIRVTKLEDSGMIARKLADFRSYACASPVFLEKYGPLTHPQDLSKVPVLIDTNTRGHNSLRLRQPDGEAFTVNISGPLEVNSPQTTLRGALSGLGIALLPDFVARRHIESGALISIFEDYMPSGSGIYAVYPHRRYLPAKVRALVDFMHNWFKRNGTCQPKQGTPPSE,not soluble
2,GPGSMQSDFDNVETELRDIEETFTTGRMNAFGSASTQDAFVHELKRIAEIETQVFYRTCALLKSSHTNEHQLVTNMYASAQPPPQSQRSGPATTSPSSNLGDGSFRANSSGLESSMYRGPMNQRSQSSFASTVAGGLSGAPPSNSNIHSSSASRRQSRQGWENVSAGSPFPGVGDGGASSGAAPHIHRSEWGNEDGFADKAFEDVAAHFEELESQFFSLGDYLREISKHVIRLNDMSKQVNNGVNYGANGGVTGAPAAAANANGSSNNTDMLQTVGSMGRQDYPGSFIDPTSIGGGSGYGMDGPHS,soluble
3,SNAAQISDGKQYITLDKPVAGEPQVLEFFSFYCPHCYQFEEVLHVSDNVKKKLPEGTKMTKYHVEFLGPLGKELTQAWAVAMALGVEDKVTVPLFEAVQKTQTVQSAADIRKVFVDAGVKGEDYDAAWNSFVVKSLVAQQEKAAADLQLQGVPAMFVNGKYQINPQGMDTSSMDVFVQQYADTVKYLVDKK,soluble
4,GPGSMQPYGMSTSRTNRRPLVASRGGPNAPQRNYAMVTGPVDPSTSLIRYELPFSPADPKRSVKLRRRFGEPIEESVVDPNVRVVLDSFIPPRAWYDDDGVLWVQHASPKPASRTDTVETHEKLRRRLRETGAKRTGICPIRSLLLAECFLEVIRQVTVECWERGLVLLKIHAERVAAQTAHRELFESRVGYAFRLALKGEKDTSRVQQDLGKLKKRMEELAEEEKTLRQQCDEASARGEEEMLIVGKQHSDEVAAIKKEGILKRNQLEHMISMPSTP,soluble
5,MKKSRYTETQIVKILKEVEAGRLVKEICREYGISDATYYNWKAKYGGMESSDIKRLKDLEEENRRLKQMYAELSLDHKILKDIVEKKLLEHHHHHH,not soluble
6,MGKKYEIFLNENEHSLITPKVSFKEILRYYYLYPKNAIPSFKLPFFKPDLSGFSTPHITWLGHSSLFISFKEYKILIDPIFNTHASPISFINKAFKNAPVYNINDFNEIFAVIITHSHFDHLDAKSVKALKDKAKFFITPLKVGNYLKSYGVSEKKIIELDWWSGIEFGDLKIMATPAQHSSSRGDGKNKTLWASFVMEFLSVDKRVFFSADGGYFTHFKKIGEYFGSFDLACLESGQFNIAWPYSHSFPEQILKEAKDLNAKAVMPIHWGRFLAGTHAWNEVVKFLYENLDLPLITPKMGEAYEVGAKLEHHHHHH,soluble
7,SLNGKYATLKDVAKLAGTTASTVSYVLNDSKERYISDEMRRRVLEAAKDLNYVKCSVASSLKGEKRKIIAVLVPQFSNQFFTRIILAIENVADQFDYVLTIYNTFDDPKREKVIINRMAQHRMDGYIIIPTYEGVKNTEQLRKIGIPMVVMDRPLEGIDDFIWVTTNNYQCGYKGAHYLALKGHRNIAFIGWNSRINDLDSRKNGFWDALAASGITSEEAIVIDGEFSEEDGYKMTKNLLKTRPDITAIFYGYNVQAQGGVRYLMKENIEIGKDISVMLIGSPEWAVTGYNNFTHIEQDEYNLGKSAATILFSIINGENQENIQNIIQDCSLYEGNSVYDITKEG,soluble
8,MGSDKIHHHHHHAPNEEGISVQKMTGFPEGEPGFSLGVSACYAGIYQGELLIAGGCNFPETPAAEGGKKKFYQGIYAADASADSVFVWRKVGQLPVAAAYGVSVSTPRGIVCVGGSNENGSLSTVYRLSLSDDKQAVIVDTLPSLPCTMDNMSGSVVDYTLFVAGGNVNGKPSNGLYCLNLGNPETGWQQLPDFPGAPRVQPVCVGQRKENETLLYLWGGFSGAFDGRSATLSTDGYCYSPSLQQWQPVSTPIGSDSVPVALGGGAGIALTDSLILCTGGVNKDIFLSALQREEMMKAAVTGGNQAAVDSLKSEAKTYMLHPAEWYRFNDRILIYNTRRDKWEEAVRSQDVARAGAALTTGQGQTFFNINGELKPGIRTPEIAKIMID,not soluble
9,MADRRNLFFFYGDDKATLVEKMKPIYRILEENGFTILDHPKNANAIVSVGDDATFLQAVRKTGFREDCLYAGISTKDEISFYCDFHIDHVDTALQEITKNEIEVRKYPTIQVDVDGSTSFHCLNEFSLRSSIIKTFVVDVHVDDLYFETFRGDGLVVSTPTGSTAYNKSLHGAVVDPLIPCFQVSELASLNNNTYRTLGSPFILNHERTLTLKLRPDGNDYPVIGMDNEALSIKQVEKAVVRLSDKQIKTVKLKNNSFWEKVQRTFLLEHHHHHH,soluble
10,MGSDKIHHHHHHMILMKSYYRLLGHYYLLLRFFKNLRDLGVSLLELENILGVIYWYLFKQKYSTRCRCCSELYINQTNINPYYFASACKLKKMGLPVEIRNSVFYYDGLEVYPTVIPYIARVIKYNWQVFNMKGNPMISFTVKNHDFKAVLLKGYEGLLQFYEQFILEQYGMFDYKDKTVIDIGGFIGDTALYFYSKEARKIVSFEPSKKNYTILIKNITLNNIKNVIPINAGVWDENTKGIITNPAPTAYRVKEESKGDVALVSILDIIDSYRPDIIKMDCEGCEYKVFEKLLETGYIYDVPEYVFEAHGNIKNELLSKLRSLDEFRLCVHSDLGNMAIVSLKKL,not soluble
11,MQMAGFGLIAKLRNKIRVKPNNKIQIGKNTRIRYCDIYVNGNNNQLIIHNGANLKGVSIELNGNNCLLEIGENCVIGENCFLSCRESGTKLVIGKECMFSRNVKLMTSDGHDILRDGKRINPAKSIYIGSHVWLADNVTILKGVDIGSGSIIGINSTVTKSIGQYCIAAGNPARKIKDNISWNTTLSY,not soluble
12,MSLIRWCFTMKLAVIGGGDLQDSNHSPINERLIELTNKQYPKVLFIPTASHDDESYIKLFLDTFEKQLHCDVQILGIIADTPSKYEIDEMIQSADLIYLGGGNYIQMVTEWKEHKLDEKLLLALEQGTLIAGYSAGAMCWFTSSIRSDYEGSGYIESNGWGIVNKRFCPHYNQLNRMNAFHSFLQNHQGNIEGIALEDNCALYITEESFEIIGEPEKAWEFYMSDNKLIRQHFDITLKSYLEGHHHHHH,not soluble
13,RWETHVYRAVKDLLVGLGFTEVLQLVLTSPRLVEAAGFSSMAVEVLNPVQQEYSVLRPTLLITLLQTLRENQHRRKPVKVFEAGNAVYLEDGEPRDEEKLALGVLDEEAGFEDVQAPLYAVLRIMGVDFEVEEASHPMFMEGRTAAVKVGGERLGYIGEVKPEVLEAFGLEYPVAAAEISLEVLARWTSRT,not soluble
14,MGHHHHHHSHMAKTYDYLFKLLLIGDSGVGKTCVLFRFSEDAFNSTFISTIGIDFKIRTIELDGKRIKLQIWDTAGQERFRTITTAYYRGAMGIMLVYDITNEKSFDNIRNWIRNIEEHASADVEKMILGNKCDVNDKRQVSKERGEKLALDYGIKFMETSAKANINVENAFFTLARDIKAKMDKKLEGNSPQGSNQGVKITPDQQKRSSFFRCVLL,soluble
15,MGGRSAQPRRFSFACRILHPAVAHDAMAGSRYILRAPASIIRLAQHGWLHCCLHFFLFPAMNDVCFVAKGSALYLFTVEIIVFGSPSLRHNVLSFFYFALPWFKRQCRLKVNFNRLKEIRGIAQVVRKAFFISKTLPCI,soluble
16,MVHHDGFQTVKGTIDWEHPMYKLYEKAKRNGKWNPADIDFSQDKEDFARLTSEEKIAALPLVAGFSAGEEAVTLDILPMAHALARQGRLEDVMFLTTFMHDEAKHVEMFSRWQQEVGIGAMDLSVFHNDHYKRIFYEALPEAMNRLYTDDSPEAVIRAATVYNMIVEGTLAESGYYTFRQIYKKAGLFPGLLQGIDYLNMDEGRHIQFGLYTIQRLVNENERYYDLFIQYMDELWPHVVGYVAYLTELGKRQQQLARTYALEIDYDMLNNYVVKQFNIRKKQISRAKRVDSIEELEKTVAES,not soluble
17,MEIQIVTGFLGAGKTTFLNRYLPLLSGKTVVIENEFGDIGIDGDRIQEDIPVREIFAGCICCSLAMDFRKGIKEIAENFHPDRILIEPSGVGRLTDIVKACQMAREREKVSLQITKLIAIVDMASFEEYIEGFGAFYQDQIERAGLLLLSHVEAENKAQKEIIIGRLKELNPDAILYDGDWRQLENEELLKLLEEAPDYDEDARRDAAFAALPADKVFSSVSFMDLPQMRIEDLEAIMKALEKEEYGYILRAKGWIETMEKGLVHFDFTPTVSKYREEKNPAGTGGEAVVIGCGLNQAALEMLFRRKNILEHHHHHH,soluble
18,MAKEKKRGFFSWLGLGRQSEEPAAEPLATEKEGVTEQEDVIEQTGVIEPTDVIEQTVEHVISEKTTEAPAENAFIEVELREQVAAVIPTEPNNAIMSEGVPDTLPERAVAESVVAELVETGDNAAIVHDEIIEPITQVTEAGGELSLVKPGIEGDTTEQGGPTDNLPKRSLTEDNLIIDVPTPQAVVEESRVDAVEQPTETSEVEEVEEVEEVEEVEEVEEKIIPVAAQEQERPTKEGFFARLKRSLIKTKQNLGSGFMGLFSGKKIDDDLFEELEEQLLIADVGVETTRKIITSLTEHTSRKQLKDADALYGKLKEEMSEILSKVDKPLDVSGKSPYVILMVGVNGVGKTTTIGKLARQFQAEGKSVMLAAGDTFRAAAVEQLQVWGERNKIAVVAQHTGADSASVIFDAIQAAKARGIDVLLADTAGRLQNKAHLMEELKKIVRVMKKLDGDAPHEVMLTLDASTGQNAVSQAKLFNEAVGLTGITLTKLDGTAKGGVIFAIADQFEIPIRYIGVGEGIEDLRPFKADEFIEALFARED,not soluble
19,MAPTLLELTASIVSSHAAVSELSTEELVQEIQKVHATLQQLEGGAAAPEVAAEEAKAPAMTLKKAFQADQVCCMICGKGGMKTLTRHLAQVHQMKPGEYRKQFNIPSSQPLTAKKFSEARKQMAKDRGLAENLAKARAVRAAKIQEKKAAAEKPAKTKATRAKKATA,not soluble
20,MGSDKIHHHHHHMRNCIIAQSGGPTAVINASAVGIYEKNLETKYFDKVYFGINGIEGILNKNIIDSDSLNKDNVLNLKQTPSSGLGSCRYKLADYKINSYDYDRVINILDEYEIDTLFYIGGNDSMDTVMKFSQYCKNTTCKIKFIGIPKTIDNDLLGTDNCPGFGSAAKLISTLIMETYLDFSIYKNNGIFIVETMGRDTGWLAASSSLARLNDTPLVDLIYLPEIDFYEDKFIEDVRKIFKEKNKAYIVASEGIRDKYGNFICEQKTSAHDKFGHSQLGGVSNYLKNLIVSSSITTRVKTLELGVIQRCAMHLASDTDLKQAAEVGAYGIELSKKGYTGVMAIINRTCNNPYKYEVSHTDISKIANKTKYFPKEWINEECNYITDEALNYLYPLIQGKPDIKYKNGLPYFSIIY,not soluble
21,MSLRFNVLKYIRTTKANIQTIAMPLTTKPLSLKINAALFDVDGTIIISQPAIAAFWRDFGKDKPYFDAEHVIHISHGWRTYDAIAKFAPDFADEEYVNKLEGEIPEKYGEHSIEVPGAVKLCNALNALPKEKWAVATSGTRDMAKKWFDILKIKRPEYFITANDVKQGKPHPEPYLKGRNGLGFPINEQDPSKSKVVVFEDAPAGIAAGKAAGCKIVGIATTFDLDFLKEKGCDIIVKNHESIRVGEYNAETDEVELIFDDYLYAKDDLLKWEGHHHHHH,not soluble
